Columns and labels:
[1] = biological target: HLA-A*01:01; experiment: IEDB peptide-MHC binding, purified MHC/direct/fluorescence; filed as Kd, often an IC50 or EC50 that approximates it; ≥ and ≤ were set here for values at or beyond the usual limits of such assays; settings: source organism: Camelpox virus M-96
[2] = biological target: HLA-A*11:01; experiment: as above; settings: source organism: Camelpox virus M-96
[3] = biological target: HLA-A*26:01; experiment: as above; settings: source organism: Variola virus
[4] = biological target: HLA-A*26:02; experiment: as above; settings: source organism: Variola virus
[5] = biological target: HLA-A*31:01; experiment: as above; settings: source organism: Camelpox virus M-96
[6] = biological target: HLA-A*69:01; experiment: as above
[7] = biological target: HLA-B*07:02; experiment: as above; settings: source organism: Camelpox virus M-96
[8] = biological target: HLA-B*08:01; experiment: as above; settings: source organism: Variola virus
[9] = biological target: HLA-B*08:02; experiment: as above; settings: source organism: Variola virus
[10] = biological target: HLA-B*08:03; experiment: as above; settings: source organism: Variola virus
[11] = biological target: HLA-B*15:17; experiment: as above; settings: source organism: Camelpox virus M-96
[12] = biological target: HLA-B*18:01; experiment: as above; settings: source organism: Camelpox virus M-96
[13] = biological target: HLA-B*27:05; experiment: as above; settings: source organism: Camelpox virus M-96
[14] = biological target: HLA-B*40:01; experiment: as above; settings: source organism: Camelpox virus M-96
[15] = biological target: HLA-B*44:02; experiment: as above; settings: source organism: Camelpox virus M-96
[16] = biological target: HLA-B*48:01; experiment: as above; settings: source organism: Camelpox virus M-96
[17] = biological target: HLA-B*57:01; experiment: as above; settings: source organism: Camelpox virus M-96
[18] = biological target: HLA-B*58:01; experiment: as above; settings: source organism: Camelpox virus M-96
[19] = biological target: HLA-A*68:02; experiment: IEDB peptide-MHC binding, purified MHC/competitive/fluorescence; filed as Kd, often an IC50 or EC50 that approximates it; ≥ and ≤ were set here for values at or beyond the usual limits of such assays
[20] = biological target: HLA-B*15:09; experiment: as above; settings: source organism: Vaccinia virus WR
[21] = biological target: HLA-B*39:01; experiment: as above; settings: source organism: Vaccinia virus WR
[22] = biological target: HLA-A*02:01; experiment: IEDB peptide-MHC binding, purified MHC/direct/fluorescence; filed as Kd, often an IC50 or EC50 that approximates it; ≥ and ≤ were set here for values at or beyond the usual limits of such assays; settings: source organism: Yersinia enterocolitica
[23] = biological target: HLA-A*02:11; experiment: as above; settings: source organism: Yersinia enterocolitica subsp. enterocolitica 8081
[24] = biological target: HLA-A*02:12; experiment: as above; settings: source organism: Yersinia enterocolitica subsp. enterocolitica 8081
[25] = biological target: HLA-A*02:16; experiment: as above; settings: source organism: Yersinia enterocolitica subsp. enterocolitica 8081
[26] = biological target: HLA-A*02:50; experiment: IEDB peptide-MHC binding, purified MHC/competitive/fluorescence; filed as Kd, often an IC50 or EC50 that approximates it; ≥ and ≤ were set here for values at or beyond the usual limits of such assays; settings: source organism: Yersinia bercovieri ATCC 43970
[27] = biological target: HLA-A*01:01; experiment: as above; settings: source organism: Mycobacterium leprae
[28] = biological target: HLA-A*02:01; experiment: as above; settings: source organism: Mycobacterium leprae
[29] = biological target: HLA-A*02:03; experiment: as above; settings: source organism: Mycobacterium leprae
[30] = biological target: HLA-A*02:06; experiment: as above; settings: source organism: Mycobacterium leprae
[31] = biological target: HLA-A*11:01; experiment: as above; settings: source organism: Mycobacterium leprae
[32] = biological target: HLA-A*26:02; experiment: as above; settings: source organism: Mycobacterium leprae
[33] = biological target: HLA-A*26:03; experiment: as above; settings: source organism: Mycobacterium leprae
[34] = biological target: HLA-A*30:01; experiment: as above; settings: source organism: Mycobacterium leprae
[35] = biological target: HLA-A*31:01; experiment: as above; settings: source organism: Mycobacterium leprae
[36] = biological target: HLA-A*69:01; experiment: as above; settings: source organism: Mycobacterium leprae
[37] = biological target: HLA-B*07:02; experiment: as above; settings: source organism: Mycobacterium leprae
[38] = biological target: HLA-B*08:01; experiment: as above; settings: source organism: Mycobacterium leprae
[39] = biological target: HLA-B*08:02; experiment: as above; settings: source organism: Mycobacterium leprae
[40] = biological target: HLA-B*08:03; experiment: as above; settings: source organism: Mycobacterium leprae
[41] = biological target: HLA-B*15:01; experiment: as above; settings: source organism: Mycobacterium leprae
[42] = biological target: HLA-B*15:17; experiment: as above; settings: source organism: Mycobacterium leprae
[43] = biological target: HLA-B*18:01; experiment: as above; settings: source organism: Mycobacterium leprae
[44] = biological target: HLA-B*27:05; experiment: as above; settings: source organism: Mycobacterium leprae
[45] = biological target: HLA-B*35:01; experiment: as above; settings: source organism: Mycobacterium leprae
[46] = biological target: HLA-B*40:01; experiment: as above; settings: source organism: Mycobacterium leprae
[47] = biological target: HLA-B*46:01; experiment: as above; settings: source organism: Mycobacterium leprae
[48] = biological target: HLA-B*48:01; experiment: as above; settings: source organism: Mycobacterium leprae
[49] = biological target: HLA-B*57:01; experiment: as above; settings: source organism: Mycobacterium leprae
[50] = biological target: HLA-B*58:01; experiment: as above; settings: source organism: Mycobacterium leprae

Sequence: FENDIDEIL
- Kd [1]: ≥ 20 µM
- Kd [2]: ≥ 20 µM
- Kd [3]: ≥ 20 µM
- Kd [4]: ≥ 20 µM
- Kd [5]: ≥ 20 µM
- Kd ([6]; source organism: Camelpox virus M-96): ≥ 20 µM
- Kd [7]: ≥ 20 µM
- Kd [8]: ≥ 20 µM
- Kd [9]: ≥ 20 µM
- Kd [10]: ≥ 20 µM
- Kd [11]: ≥ 20 µM
- Kd [12]: 0.122 µM
- Kd [13]: ≥ 20 µM
- Kd [14]: 0.0053 µM
- Kd [15]: ≥ 20 µM
- Kd [16]: 1.2 µM
- Kd [17]: ≥ 20 µM
- Kd [18]: ≥ 20 µM
- Kd ([19]; source organism: Vaccinia virus WR): 2.14 µM
- Kd [20]: ≥ 20 µM
- Kd [21]: ≥ 20 µM

Sequence: TLLCGAATA
- Kd [22]: 0.196 µM
- Kd [23]: 0.042 µM
- Kd [24]: 0.021 µM
- Kd [25]: 0.057 µM
- Kd ([6]; source organism: Yersinia enterocolitica): 0.394 µM
- Kd [26]: 0.012 µM

Sequence: TVGYMYIMK
- Kd [27]: ≥ 20 µM
- Kd [28]: ≥ 20 µM
- Kd [29]: ≥ 20 µM
- Kd [30]: ≥ 20 µM
- Kd [31]: 0.0049 µM
- Kd [32]: ≥ 20 µM
- Kd [33]: ≥ 20 µM
- Kd [34]: 0.0488 µM
- Kd [35]: ≥ 5 µM
- Kd ([19]; source organism: Mycobacterium leprae): ≥ 20 µM
- Kd [36]: ≥ 20 µM
- Kd [37]: ≥ 20 µM
- Kd [38]: ≥ 20 µM
- Kd [39]: ≥ 20 µM
- Kd [40]: ≥ 20 µM
- Kd [41]: ≥ 20 µM
- Kd [42]: ≥ 20 µM
- Kd [43]: ≥ 20 µM
- Kd [44]: ≥ 20 µM
- Kd [45]: ≥ 20 µM
- Kd [46]: ≥ 20 µM
- Kd [47]: ≥ 20 µM
- Kd [48]: ≥ 20 µM
- Kd [49]: ≥ 20 µM
- Kd [50]: ≥ 20 µM

— the Immune Epitope Database (IEDB)
